# Measured values published in publication PMC2854606.
# Target: T1, endogenous MGR (Mus musculus (C2C12 myoblasts)) (UniProt D2EAC2)
# T1 sequence: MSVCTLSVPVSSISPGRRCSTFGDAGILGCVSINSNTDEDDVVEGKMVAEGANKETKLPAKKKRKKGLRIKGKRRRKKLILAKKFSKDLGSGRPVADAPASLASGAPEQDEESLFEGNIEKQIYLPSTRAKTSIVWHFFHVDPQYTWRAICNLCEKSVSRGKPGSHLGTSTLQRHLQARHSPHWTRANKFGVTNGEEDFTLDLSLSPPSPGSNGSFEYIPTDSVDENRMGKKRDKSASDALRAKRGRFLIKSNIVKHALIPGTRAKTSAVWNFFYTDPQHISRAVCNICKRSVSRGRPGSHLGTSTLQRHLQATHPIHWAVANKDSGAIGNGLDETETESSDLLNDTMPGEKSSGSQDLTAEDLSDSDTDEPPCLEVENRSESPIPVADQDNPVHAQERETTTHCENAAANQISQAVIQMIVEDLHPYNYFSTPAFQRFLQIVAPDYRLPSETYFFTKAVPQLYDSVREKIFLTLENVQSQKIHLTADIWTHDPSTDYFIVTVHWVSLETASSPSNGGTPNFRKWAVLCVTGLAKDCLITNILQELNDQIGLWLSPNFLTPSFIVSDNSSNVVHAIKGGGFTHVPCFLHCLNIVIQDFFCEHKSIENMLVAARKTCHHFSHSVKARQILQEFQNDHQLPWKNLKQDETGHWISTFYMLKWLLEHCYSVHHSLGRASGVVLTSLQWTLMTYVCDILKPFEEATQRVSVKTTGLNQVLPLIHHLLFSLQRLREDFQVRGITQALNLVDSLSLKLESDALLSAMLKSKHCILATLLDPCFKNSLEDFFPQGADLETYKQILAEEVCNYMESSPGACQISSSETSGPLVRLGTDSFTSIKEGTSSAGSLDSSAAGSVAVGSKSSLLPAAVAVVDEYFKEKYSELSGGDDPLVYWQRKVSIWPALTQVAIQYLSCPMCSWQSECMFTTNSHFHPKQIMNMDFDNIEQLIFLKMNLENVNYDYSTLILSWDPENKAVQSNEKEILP
# Test: pull-down, SILAC MS
sequence,measurement,value
TTCAAAACTGCAGGATCCTTCGCCTAGGCTCGCAGCGCGGGAGCGA / AATCGCTCCCGCGCTGCGAGCCTAGGCGAAGGATCCTGCAGTTTTG [porcine IGF2 q (pulldown)],binding signal (SILAC ratio q/Q),5.5
